Results: the DeepSol protein solubility set

Test: soluble on expression in E. coli; label from the status in PepcDB or PDB records
In the case of “MVRVEDSNGADTDTNPEGESSGYVRLAGNGLPGGEQQQASSSGVAAAPSVDSSPGRSVPLAIASSSSPANVANNQYAIPVDENGHRYVGLVNQAMTCYLNSLVQSLYMTPEFRNAMYDWEYVQQPAHIKEQRKKAEQSIPCQLQKLFLLLQTSENDSLETKDLTQSFGWTSNEAYDQHDVQELCRLMFDALEHKWKGTEHEKLIQDLYRGTMEDFVACLKCGRESVKTDYFLDLPLAVKPFGAIHAYKSVEEALTAFVQPELLDGSNQYMCENCKSKQDAHKGLRITQFPYLLTIQLKRFDFDYNTMHRIKLNDKMTFPDVLDLNDYVNKEKRSTTSSAWQQIGKNKSENEEDDMELGSPNPKRCTPGVQSPNRYQGSENVCVGQPIDHAAVDDIVKTSGDNVYELFSVMVHSGNAAGGHYFAYIKNLDQDRWYVFNDTRVDFATPLEIEKSFGGHPSGWNQSNTNAYMLMYRRIDPKRNARFILSNQLPQHIKDSQEKWKRLEREAEDERLRKLSLIQVYVTINYPFPSVVTLPDKKQLDLTPQKYQIAEDFGEYKTEISREMPIKNVFNHAFEFFNERARAYNLPFTKNSARLIYVEHGSLMMDFKSKADMDKKLRSVFNVNHGEPGSMYGVHFILDVRIASSFFPVDIKNKITIKVQRVDIGKKTTANELIVVVDANEKMIKVKSWIGGQFRDDIHGVLNARVVLEVASSRCEFMMIDVSHNATEFGSLIQQYVGHTTPTLYYDGGLNTMVTKESQEATLADRKLPFDKSVMYHILDRKCFSTMVKVRLPSQEEIEKAASTKNAYQGPTWAETIAIMKEEDRLWNEPRAAVEVMSTVSRTDTTDHALVADTDDEPIPSGRGSTASMRSVSMDDIDADIGISGSLCNNTPQMSPCVSEGDDADESQLDGKSQLMSDYMQKTSPDFYYNRDPQNHLNKNLKIALGDETPSESLSAVSSGQSTLVPSTSNQALSSMTRSDEAVDGKIVTVFSHENFHKLDVDSRMRVLEFKKWVAEQLEMDKDQFVIVKHASDDGSDSGYEANFMDDETVSGAFQSCFISIKLRAPLKSDEKMMQIILFDILENLRENWKPLFELPVSQSTVIGDVLLQCLRMYKEVYGEELTPKMVRLRELGGSGVGTGRAVLNPNDTLEKRSYNWCSHLYLQIITDEAMIGKPGEPIMVRRFRPSTVEVNPTHEVLVDANAENPVVSFVEALSKISGIPVERLAITDLKEFNWQKWPYLKSRLDMLENKVNFTKDLQVTYPLPREFLDKVGSRVLYYKDSDEEAKVLSEDERKQIKIKENGQSANANRRKERPLRIQMSSVCEA”, the “soluble on expression in E. coli” value is reported as “not soluble”.
For “MVSKIRTFGWVQNPGKFENLKRVVQVFDRNSKVHNEVKNIKIPTLVKESKIQKELVAIMNQHDLIYTYKELVGTGTSIRSEAPCDAIIQATIADQGNKKGYIDNWSSDGFLRWAHALGFIEYINKSDSFVITDVGLAYSKSADGSAIEKEILIEAISSYPPAIRILTLLEDGQHLTKFDLGKNLGFSGESGFTSLPEGILLDTLANAMPKDKGEIRNNWEGSSDKYARMIGGWLDKLGLVKQGKKEFIIPTLGKPDNKEFISHAFKITGEGLKVLRRAKGSTKFTRVPKRVYWEMLATNLTDKEYVRTRRALILEILIKAGSLKIEQIQDNLKKLGFDEVIETIENDIKGLINTGIFIEIKGRFYQLKDHILQFVIPNRLGKPDLVKSELEEKKSELRHKLKYVPHEYIELIEIARNSTQDRILEMKVMEFFMKVYGYRGKHLGGSRKPDGAIYTVGSPIDYGVIVDTKAYSGGYNLPIGQADEMQRYVEENQTRNKHINPNEWWKVYPSSVTEFKFLFVSGHFKGNYKAQLTRLNHITNCNGAVLSVEELLIGGEMIKAGTLTLEEVRRKFNNGEINF”, the “soluble on expression in E. coli” value was “soluble”.
With “MVSSSVARGLEDAGLKRFVPAFSGVSDQAFLGLMMSDYASYGVVELEDKQRLFRLIKSIAASVKSSDAPAPALEKPNALIDLDENDGDLLADAGVNFQLSPLANQNPKAPVPSGGGGVPPSEGEDPPKIRVVVRKRPISKKERERGDDDVVDVLAKNNTVVVNEEKVKVDLTKYLEKHAFKFDESLDENVSNEAVYQLTVGPLVRTLFRNGRASCFAYGQTGSGKTYTMSPLPIRASADIFTFMAQQQYRDISLCVSCFEIYGNKVFDLLNARKKLNILEDGKKKVVVVGLKEFGVDDVDGVKALIEESAKNRSTGSTAANADSSRSHSIMQFALKRAAPAPAGGFRRGEDAPEPRVVGKISFIDLAGSERGADTFDNNRQTRLEGAEINKSLLALKECIRALDSDARHVPFRGSKLTAVLRDSFVGDQARTVMIANISPCSSSVEHTLNTLRYADRVKELRKDKADRTPGGVTPGDDAYYAAVARAAGPGQAAAPAPERERERADLQRERDRERASDRYPSPPRQQAGAFAGGGGGGAGADGEGSAAALAERHDELMDSILLEEENLVAFHRAKLEEDMETMRQEMALLQEVDKPGSEIDHYVEQMSALLNIKRQGIQELQAKLDTFKAKLREEEALSRTVHKIRT” the “soluble on expression in E. coli” value was “not soluble”.
With “MVTEDVRATADDIADMEIRGAATIARAAADALESQATDSDADSPAAFRAELRAAARHLRDTRPTAVSLPNALRYVLGNTDGETVAALRASVTDAADAFRQQLDRAQDDLGAIGANRLRDGDTVMTHCHSTDALACVKAALDDGKHIEAVVKETRPRKQGHITADQLREWGVPVTLIVDNAGRRYLDAVDHVLVGADSIAADGSVINKIGTSMLAVVARERGVPVMVAAQTLKLHPDTLTGNTVEIEMRDETEVLAAADRHQLGAPDVENPAFDVTPPRYVDAIVTERGQFPPESIVTLMRELYGDGTTEPWAEDLEHHHHHH” the “soluble on expression in E. coli” value was “not soluble”.
With “MVTGLICFTGCSDDFLKDKKVYGSYDASVVYENYETAKSRVDFLYQSLLPSSTGGSNALTDITSAGIDDDFSKCTEEYGDYSIFNDPTASLTIQTVPDYFYVINSERSPWGRIRECNNVIEGVTGSATLSQTEKEQLLGQAYFFRAWRYYLLVKMYGGVPIVDHVQNPVIGDGNGENLVIPRSSTKACIDFICDDLELAASYLPARWQNEGQDYGRITAGAALALKGRTLLLYASPLFNRADDASRWKDAYDANFAAITKLNEGNFGLAYEGNGGEDNAKNWARMFATYTGGSEAVFVTLYNNVSPIASQNINRYNLWEQGIRPGNINGGGGKTPTAEIIDIFPMIDGKKPMESGVHYDPKKFFLNRDPRFYRTFAFPGVEWKFNSGNVDFSGATMSGLCPTRYTSGANYELWNYCWYTTADERNNPSRSGFAADMLGTKNRGVYVRKRSDDFDLGTSLYVFTDNSSGDQQGFRRSAAPYMEIRYAEVLLNLAESACGAGGTYHAEGVKALKAVRGRVGYTSANNYGLDAAIETDRAKLFEAILYERQVELAFEGKRAYDMRRWMLFDGGVGQGALNASWALSGFGGNTCTYLGVTPMNERGKRYRIEINVEGTGSANNDSDPIKNVERPAALTLNEKIATEADGETILDPAVSSICTFYDTYFSRKDISLDGNVLDINPYFQPRYYFFGLRQSAQQTNATLYQTIGWEDYAHGGMGTFDPLAE” the “soluble on expression in E. coli” value was “not soluble”.
With “MVTPIAVVGPTASGKSALGIALAHKLDGEVVNVDSMQLYKGMDIGTAKLTVEEREGIAHHQLDVWDVTETASVARFQSDAVADVEDIMSRGKTPILVGGSMLYVQSLVDDWQFPPTDSAVRARFEARLADIGVEALHAELTQLDPEAAAVIESNDPRRTVRALEVIELTGQPFQASQPPKDAPPRWGTRIIGLKTTPEWLNPRIEQRTARMFEQGFVAEVEHLVQQGLIADSTAGRAIGYSQVLAAMAGEMTWEDAFERTVTGTRRYVRRQRSWFNRDHRVSWVDASGDPTAQALEILGLQLEHHHHHH” the “soluble on expression in E. coli” value was “soluble”.
With “MVTQNKKILIITGSFGNGHMQVTQSIVNQLNEMNLNHLSVIQHDLFMEAHPIMTSICKKWYINSFKYFRNTYKRFYYSRPNELDKCFYKYYGLNKLINLLIKEKPDLILLTFPTPVMSVLTEQFNINIPIATVMTDYRMHKNWITPYSQRYYVATKDTKDDFIEAGVPASYIKVTGIPIADKFEESIDKEEWLSQQHLDPSKPTILMSAGAFGVSKGFDYMINNILEKSPNSQVVMICGRSKELKRSLKAKFKDNPSVKILGYTNHMNEWMASSQLMITKPGGITISEGLSRCIPMIFLNPAPGQELENAYYFESKGFGKIADTPNEAIDIVSDLTNNEETLKVMSSKMLESKVGYSTRKICKDLLDLIGHSSQPDEIYGKVPLYARFFVKLEHHHHHH” the “soluble on expression in E. coli” value was “soluble”.
For “MVTVAVPKERAPGERRVALVPEVVARLVKGGARVRVERGAGEGAYHPDEAYQEAGAEVVERGELLKGAHLLFTVQPPPEDLIQALEPGAIVVGFVQPHKNLELVRALQAKKATVIAMELIPRITRAQSMDALSSQATVAGYLAAIHAARLSPRFFPMLTTAAGTIRPAKVMVMGVGVAGLMAIATAKRLGAQVFAYDVRKAALEQALSLGAKPIELPISAEGEGGYARELTEEEKRIQHEALRDHVAGMDVLITTAQVPGRRAPILLTEDMVERLKPGTVVVDLAAESGGNCVLTKPGEVVEVRGVRVYGPLNLPSELSVHASEMYAKNLYNLSSLLIEKGAFAPKWEDEIVRAALLMKEGEVLHGPTKALLGGA”, the “soluble on expression in E. coli” value was “soluble”.
For “MVVLKVTLLEGRPPEKKRELVRRLTEMASRLLGEPYEEVRVILYEVRRDQWAAGGVLFSDKEGT”, the “soluble on expression in E. coli” value was “soluble”.
With “MVVVRLPKEIEERLTALARKTGRSKSYYVRQALLEYLDDLEDYYLAVERLEERLPGIPLDEVERRLGLSD” the “soluble on expression in E. coli” value was “soluble”.
With “MVVVYVVKIGGSLTNNAVNLLENLKKLGEKVVIIPGGGNFANVVRNLHENEKINDISAHKLATMCTDITGTYFSEISGIKTADNLFDAKRILQNESIVIILPSNIILSTDELPCSWEVTSDSFAAYIAKLLNSKTLIIATDVDGIYDKYPEGKLLNTINTKTIKGFTSVDKHLPKLISEYGIKCFVVNGNHPERINNIFKGVVDTYTKITLKLEHHHHHH” the “soluble on expression in E. coli” value was “not soluble”.
In the case of “MVWMVELKEPFATLWRGKDPFEEVKTLQGEVFRELETRRTLRFEMAGKSYFLKWHRGTTLKEIIKNLLSLRMPVLGADREWNAIHRLRDVGVDTMYGVAFGEKGMNPLTRTSFIITEDLTPTISLEDYCADWATNPPDVRVKRMLIKRVATMVRDMHAAGINHRDCYICHFLLHLPFSGKEEELKISVIDLHRAQLRTRVPGRWRDKDLIGLYFSSMNIGLTQRDIWRFMKVYFAAPLKDILKQEQGLLSQAEAKATKIRERTIRKSL”, the “soluble on expression in E. coli” value is reported as “not soluble”.
In the case of “MVYPIRLYGDPVLRRKARPVEDFSGIKRLAEDMLETMFEAKGVGLAAPQIGLSQRLFVAVEYADEPEGEEERPLRELVRRVYVVANPVITYREGLVEGTEGCLSLPGLYSEEVPRAERIRVEYQDEEGRGRVLELEGYMARVFQHEIDHLDGILFFERLPKPKREAFLEANRAELVRFQKEARALLKELSQG”, the “soluble on expression in E. coli” value is reported as “soluble”.
In the case of “MWELAEVQEPEAWNRLVSGFAITSPLQSWGWGEVKRTTGWEPRRFLLLGGEGPVAAAQVLLKAAPGGLRLAYAPRGPALHRLEDLPEVARALGRALRATHLVLEPEAGLPAHLPAPRFPGLLLEEPIQPAHSLWLDLTQGEEALLKGMKEMHRRNARLALKRVALSVEGEEAFAEFYRLFTETNRRARLLQHDEAYYRAVLKEMNQPLGEAFLALARKDGEALAAGLFVAFAGKVAYLYGGSTRKHPEAKAPMGMHLAAIRHGMARGYRVYDLWGIPKNPRGSHAEGIHRFKEGFGGQRVQFPAYVLPLSPLYRPLGLLLRLRKTWVNLRVRGNPRDVLG”, the “soluble on expression in E. coli” value is reported as “soluble”.
In the case of “MWGQTNMADKKSPLIAVSVGEASGDLLGAHLIRAIRKRCPQARFTGIGGELMKAEGFESLYDQERLAVRGFVEVVRRLPEILRIRRGLVRDLLSLKPDVFVGIDAPDFNLGVAEKLKRSGIPTVHYVSPSVWAWRRERVGKIVHQVNRVLCLFPMEPQLYLDAGGRAEFVGHPMAQLMPLEDDRETARQTLGVDAGIPVFALLPGSRVSEIDYMAPVFFQTALLLLERYPAARFLLPAATEATKRRLAEVLQRPEFAGLPLTVIDRQSETVCRAADAVLVTSGTATLEVALCKRPMVISYKISPLTYAYVKRKIKVPHVGLPNILLGKEAVPELLQSEAKPEKLAAALADWYEHPDKVAALQQDFRALHLLLKKDTADLAARAVLEEAGC”, the “soluble on expression in E. coli” value is reported as “not soluble”.
With “MWGWKAVGIKIDPSVSLEQAREIIKEAGFQEYVVNPEYIIFKQTGTQLTIKGEELPIEVVIGSAESGIFLQARYDTFVLFDSGDLAKLADELVFKLSV” the “soluble on expression in E. coli” value was “not soluble”.
